Measurements as given in US20090324609A1.

Target: PD-1 receptor on T cells of anti-CD3-activated Balb/c splenocytes (mouse) (UniProt Q02242)
Test: cell-based or functional assay

Sequence of UniProt Q02242 (Q02242 25-288): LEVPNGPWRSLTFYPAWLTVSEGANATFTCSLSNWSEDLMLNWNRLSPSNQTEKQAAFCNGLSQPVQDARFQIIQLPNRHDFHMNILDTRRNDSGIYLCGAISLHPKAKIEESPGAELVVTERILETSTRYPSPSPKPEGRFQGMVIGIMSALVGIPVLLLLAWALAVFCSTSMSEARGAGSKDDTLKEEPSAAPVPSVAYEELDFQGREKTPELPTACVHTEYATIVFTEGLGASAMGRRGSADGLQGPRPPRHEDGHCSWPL

Substance: PD-L1 (Programmed death ligand 1) on the surface of wildtype C57BL/6 mouse mesenchymal stem cells (from UniProt Q9EP73 19-290)
- Fold suppression of T cell proliferation by wildtype B6 MSCs (CFSE, anti-CD3-activated Balb/c splenocytes): > 5 fold
- Fold suppression of T cell proliferation when PD-L1 is absent from the MSCs (B6 PD-L1-/- MSCs; CFSE, anti-CD3-activated Balb/c splenocytes): < 2 fold
- T cell proliferation (CFSE-labelled Balb/c splenocytes activated with anti-CD3, flow cytometry); percent proliferating with wildtype B6 MSCs, against 87% without MSCs: 16%
